B1: H02L01-PBD (conjugate)
heavy: EVQLVESGGGLVQPGGSLRLSCAASGFTFRDYYMAWVRQAPGKGLEWVSSIGFDESRTYYADSVKGRFTISRDDSKNTLYLQMNSLRAEDTAVYYCARHGVSYYSGDNWFAYWGQGTLVTVSSASTKGPSVFPLAPSSKSTSGGTAALGCLVKDYFPEPVTVSWNSGALTSGVHTFPAVLQSSGLYSLSSVVTVPSSSLGTQTYICNVNHKPSNTKVDKKVEPKSCDKTHTCPPCPAPEAAGGPSVFLFPPKPKDTLMISRTPEVTCVVVDVSHEDPEVKFNWYVDGVEVHNAKTKPREEQYNSTYRVVSVLTVLHQDWLNGKEYKCKVSNKALAAPIEKTISKAKGQPREPQVYTLPPSREEMTKNQVSLTCLVKGFYPSDIAVEWESNGQPENNYKTTPPVLDSDGSFFLYSKLTVDKSRWQQGNVFSCSVMHEALHNHYTQKSLSLSPGK
light: DIQMTQSPSSLSASVGDRVTITCKSSQGLLYSGDQKNYLAWYQQKPGKAPKLLIYWASTRQSGVPSRFSGSGSGTDFTLTISSLQPEDFATYYCQQYYDPPYTFGQGTKVEIKRTVAAPSVFIFPPSDEQLKSGTASVVCLLNNFYPREAKVQWKVDNALQSGNSQESVTEQDSKDSTYSLSSTLTLSKADYEKHKVYACEVTHQGLSSPVTKSFNRGEC
B2: H02L01-V2-PBD (conjugate)
heavy: EVQLVESGGGLVQPGGSLRLSCAASGFTFRDYYMAWVRQAPGKGLEWVSSIGFDESRTYYADSVKGRFTISRDDSKNTLYLQMNSLRAEDTAVYYCARHGVSRYSGDNWFAYWGQGTLVTVSSASTKGPSVFPLAPSSKSTSGGTAALGCLVKDYFPEPVTVSWNSGALTSGVHTFPAVLQSSGLYSLSSVVTVPSSSLGTQTYICNVNHKPSNTKVDKKVEPKSCDKTHTCPPCPAPEAAGGPSVFLFPPKPKDTLMISRTPEVTCVVVDVSHEDPEVKFNWYVDGVEVHNAKTKPREEQYNSTYRVVSVLTVLHQDWLNGKEYKCKVSNKALAAPIEKTISKAKGQPREPQVYTLPPSREEMTKNQVSLTCLVKGFYPSDIAVEWESNGQPENNYKTTPPVLDSDGSFFLYSKLTVDKSRWQQGNVFSCSVMHEALHNHYTQKSLSLSPGK
light: DIQMTQSPSSLSASVGDRVTITCKSSQGLLYSGDQKNYLAWYQQKPGKAPKLLIYWASTRQSGVPSRFSGSGSGTDFTLTISSLQPEDFATYYCQQYYDPPYTFGQGTKVEIKRTVAAPSVFIFPPSDEQLKSGTASVVCLLNNFYPREAKVQWKVDNALQSGNSQESVTEQDSKDSTYSLSSTLTLSKADYEKHKVYACEVTHQGLSSPVTKSFNRGEC
B3: H02L01-V1-PBD (conjugate)
heavy: EVQLVESGGGLVQPGGSLRLSCAASGFTFRDYYMAWVRQAPGKGLEWVSSIGFDESRTYYADSVKGRFTISRDDSKNTLYLQMNSLRAEDTAVYYCARHGVSKYSGDNWFAYWGQGTLVTVSSASTKGPSVFPLAPSSKSTSGGTAALGCLVKDYFPEPVTVSWNSGALTSGVHTFPAVLQSSGLYSLSSVVTVPSSSLGTQTYICNVNHKPSNTKVDKKVEPKSCDKTHTCPPCPAPEAAGGPSVFLFPPKPKDTLMISRTPEVTCVVVDVSHEDPEVKFNWYVDGVEVHNAKTKPREEQYNSTYRVVSVLTVLHQDWLNGKEYKCKVSNKALAAPIEKTISKAKGQPREPQVYTLPPSREEMTKNQVSLTCLVKGFYPSDIAVEWESNGQPENNYKTTPPVLDSDGSFFLYSKLTVDKSRWQQGNVFSCSVMHEALHNHYTQKSLSLSPGK
light: DIQMTQSPSSLSASVGDRVTITCKSSQGLLYSGDQKNYLAWYQQKPGKAPKLLIYWASTRQSGVPSRFSGSGSGTDFTLTISSLQPEDFATYYCQQYYDPPYTFGQGTKVEIKRTVAAPSVFIFPPSDEQLKSGTASVVCLLNNFYPREAKVQWKVDNALQSGNSQESVTEQDSKDSTYSLSSTLTLSKADYEKHKVYACEVTHQGLSSPVTKSFNRGEC

What was measured:
[1] = system: LRRC15-positive human osteosarcoma cell line HuO9; assay: In vitro cell growth inhibitory activity (CellTiter-Glo 2.0); format: cell-based; details: 0.0002 to 1.5 µg/mL, 6 days of culture, compared to control hIgG-PBD
Description: (§1) LRRC15-positive human osteosarcoma cell line HuO9 (JCRB) was seeded in 10% FBS-containing RPMI medium at 5 x 10^3 cells/50 μL/well, LRRC15-positive human melanoma cell line Hs294T was seeded in 10% FBS and 20 ng/mL TGFβ1-containing RPMI medium at 5 x 10^3 cells/50 μL/well, or, as a negative control, LRRC15-negative HEK293α was seeded in 10% FBS-containing RPMI medium at 2 x 10^3 cells/50 μL/well in a 96-well plate, and cultured overnight under conditions of 37°C and 5% CO2. The next day, the three types of hR024-drug conjugates (clone names of […]-PBD, […]-V1-PBD, and […]-V2-PBD) prepared in Example 5 and the control hIgG-PBD were diluted at a common ratio of 3 to a final concentration of 0.0002 (μg/mL) from 1.5 (μg/mL) and added. After 6 days of culture, the number of viable cells was measured by quantification of ATP using CellTiter-Glo 2.0 Assay (Promega).

[2] = system: LRRC15-positive human melanoma cell line Hs294T; assay: as above; format: cell-based; details: 20 ng/mL TGFβ1-containing medium, 0.0002 to 1.5 µg/mL, 6 days of culture, compared to control hIgG-PBD
Description: as §1

LRRC15-negative HEK293α = assay: In vitro cell growth inhibitory activity (CellTiter-Glo 2.0), negative control cells; format: cell-based; details: 0.0002 to 1.5 µg/mL, 6 days of culture, compared to control hIgG-PBD
Description: as §1

[3] = system: LRRC15-negative human lung carcinoma cell line EBC-1; assay: In vivo antitumor effect, EBC-1 subcutaneous transplant model; details: tail vein, on Day 9, female SCID mice
Description: The antitumor effects of the antibody-drug conjugates were evaluated by using animal models in which cells of the human tumor cell line had been transplanted into immunodeficient mice. 4 to 6 Week-old SCID mice (CB17/Icr-Prkdc[scid]/CrlCrlj, Jackson Laboratory Japan, Inc.) were habituated for 3 days or more under SPF conditions before experimental use. The mice were fed with sterilized solid feed (FR-2, Funabashi Farms Co., Ltd.) and given sterilized tap water (prepared by adding a solution of 5 to 15 ppm sodium hypochlorite). The major and minor diameters of the transplanted tumors were measured twice a week with an electronic digital caliper ([…] Corporation), and the estimated tumor volume was calculated using the following formula. Estimated tumor volume (mm^3) = 1/2 × major diameter (mm) × [minor diameter (mm)]^2 All antibody-drug conjugates were diluted with ABS and administered into the tail vein at doses shown in each Example. In addition, ABS (vehicle) or control hIgG-PBD prepared in Reference Example 4 was administered as the control group, in a similar manner. 5 to 6 Mice were used per group in the experiment. LRRC15-negative human lung carcinoma cell line EBC-1 (JCRB) was suspended in PBS mixed with 50% Matrigel (Corning Incorporated), 1.0 × 10^6 cells were subcutaneously transplanted into the right flank of female SCID mice (Day 0), and random grouping was performed on Day 9. From publicly known information, it is known that in this tumor model, carcinoma cells are LRRC15 negative, and cells in the tumor stroma are LRRC15 positive (International Publication No. 2017/095805). On the day of grouping, a vehicle, the antibody-drug conjugate […]-PBD, […]-V1-PBD, or […]-V2-PBD prepared in Example 5 was administered into the tail vein at a dose of 0.4 mg or 0.2 mg/kg. The abscissa indicates the number of days, and the ordinate indicates estimated tumor volume, and the error bars indicate SEM values. […] The antitumor effects of the antibody-drug conjugates were evaluated by using animal models in which cells of a human tumor cell line had been transplanted into immunodeficient mice, or cells of a mouse tumor cell line had been transplanted into immunocompetent mice. 4 to 6 Week-old SCID mice (CB17/Icr-Prkdc[scid]/CrlCrlj, Jackson Laboratory Japan, Inc.), NSG mice (NOD.Cg-Prkdcscid Il2rgtm1Wjl/SzJ, Jackson Laboratory Japan, Inc.), or B6J mice (C57BL/6J, Jackson Laboratory Japan, Inc.) were habituated for 3 days or more under SPF conditions before experimental use. The mice were fed with sterilized solid feed and given sterilized tap water. The major and minor diameters of the transplanted tumors were measured twice a week with an electronic digital caliper (Mitutoyo Corporation), and the estimated tumor volume was calculated using the following formula. […]

Row | Molecule | inhibitory activity against cell growth [1] | inhibitory activity against cell growth [2] | inhibitory activity against cell growth (LRRC15-negative HEK293α) | antitumor effect (estimated tumor volume) ([3]; 0.4 mg or 0.2 mg/kg) | antitumor effect (estimated tumor volume) ([3]; 0.3 mg/kg, huM25-PBD at the same dose)
1 | B1 | inhibited tumor cell proliferation when added at a lower concentration | inhibited tumor cell proliferation when added at a lower concentration | growth inhibitory activity equivalent to that of the control hIgG-PBD | antitumor activity higher than that of the vehicle group | –
2 | B2 | inhibited tumor cell proliferation when added at a lower concentration | inhibited tumor cell proliferation when added at a lower concentration | growth inhibitory activity equivalent to that of the control hIgG-PBD | antitumor activity higher than that of the vehicle group | –
3 | B3 | inhibited tumor cell proliferation when added at a lower concentration | inhibited tumor cell proliferation when added at a lower concentration | growth inhibitory activity equivalent to that of the control hIgG-PBD | antitumor activity higher than that of the vehicle group | antitumor activity higher than that of the vehicle and huM25-PBD

From EP4703474A1, “ANTI-LRRC15 ANTIBODY” (priority 2023, dated 2024)
